Substrate in the series: CO[C@H]1O[C@H](COS(=O)(=O)O)[C@@H](O[C@@H]2O[C@@H](C(=O)O)[C@@H](O[C@H]3O[C@H](COS(=O)(=O)O)[C@@H](O[C@@H]4O[C@H](C(=O)O)[C@@H](O[C@H]5O[C@H](COS(=O)(=O)O)[C@@H](O)[C@H](O)[C@H]5NS(=O)(=O)O)[C@H](O)[C@H]4O)[C@H](OS(=O)(=O)O)[C@H]3NS(=O)(=O)O)[C@H](O)[C@H]2OS(=O)(=O)O)[C@H](O)[C@H]1NS(=O)(=O)O
Nature of the series: purified protein, by the assay type. To be noted: pH 5.0.

B1: Recombinant human heparanase (Homo sapiens) (protein)
chain 1: KKFKNSTYSRSSVDVLYTFANCSGLDLIFGLNALLRTADLQWNSSNAQLLLDYCSSKGYNISWELGNEPNSFLKKADIFINGSQLGEDFIQLHKLLRKSTFKNAKLYGPDVGQPRRKTAKMLKSFLKAGGEVIDSVTWHHYYLNGRTATKEDFLNPDVLDIFISSVQKVFQVVESTRPGKKVWLGETSSAYGGGAPLLSDTFAAGFMWLDKLGLSARMGIEVVMRQVFFGAGNYHLVDENFDPLPDYWLSLLFKKLVGTKVLMASVQGSKRRKLRVYLHCTNTDNPRYKEGDLTLYAINLHNVTKYLRLPYPFSNKQVDKYLLRPLGPHGLLSKSVQLNGLTLKMVDDQTLPPLMEKPLRPGSSLGLPAFSYSFFVIRNAKVAACI
chain 2: QDVVDLDFFTQEPLHLVSPSFLSVTIDANLATDPRFLILLGSPKLRTLARGLSPAYLRFGGTKTDFLIFDPKKE
What is called Km is the substrate concentration at which the rate is half of its maximum. For the protein B1, the Km was found to be 3.6 ± 0.5 µM.

Source of the values: PMC3821029.
